# Literature values as cited in PMC4518304.
# Target: Asp26 (UniProt position 27, GAILVDFWAEW)
# Assay: NMR
# Conditions: reduced thioredoxin (per title of ref. 51)
substance,measurement,value
Thioredoxin (thioredoxin 1) (Escherichia coli),pKa,7.3–7.5
